Experiments:
[1] = target: human Izumo1, immobilized AVEXIS bait (UniProt Q8IYV9); test: AVEXIS; conditions: parent: est. 0.16; read off a plot
[2] = target: mouse Izumo1, immobilized AVEXIS bait (UniProt Q9D9J7); test: AVEXIS; conditions: parent: est. 0.51; read off a plot
mouse Izumo1, immobilized AVEXIS bait, sequence (Q9D9J7 22-397): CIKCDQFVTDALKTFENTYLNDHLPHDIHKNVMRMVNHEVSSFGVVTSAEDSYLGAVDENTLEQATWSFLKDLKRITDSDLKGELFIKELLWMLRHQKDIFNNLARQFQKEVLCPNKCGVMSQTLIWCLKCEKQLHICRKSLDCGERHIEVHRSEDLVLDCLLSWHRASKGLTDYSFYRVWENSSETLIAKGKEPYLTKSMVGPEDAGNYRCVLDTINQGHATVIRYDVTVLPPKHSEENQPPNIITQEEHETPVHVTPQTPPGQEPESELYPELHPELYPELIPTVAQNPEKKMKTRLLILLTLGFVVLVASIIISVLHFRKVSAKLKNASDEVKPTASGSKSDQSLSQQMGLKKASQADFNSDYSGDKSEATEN

human Izumo1, immobilized AVEXIS bait, sequence (Q8IYV9 22-350): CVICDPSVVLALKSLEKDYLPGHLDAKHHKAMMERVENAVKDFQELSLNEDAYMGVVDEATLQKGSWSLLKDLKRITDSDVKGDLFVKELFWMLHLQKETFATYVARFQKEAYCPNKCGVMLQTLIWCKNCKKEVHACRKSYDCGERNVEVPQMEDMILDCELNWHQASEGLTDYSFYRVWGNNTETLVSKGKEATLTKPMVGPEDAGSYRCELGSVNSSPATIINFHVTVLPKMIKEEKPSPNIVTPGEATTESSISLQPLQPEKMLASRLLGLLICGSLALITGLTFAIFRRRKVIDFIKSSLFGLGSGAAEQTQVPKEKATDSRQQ
mouse Juno, wild type, AVEXIS prey (from UniProt Q9EQF4) Loop 2 (mouse Juno loop 2 replaced with the corresponding human residues), sequence (Q9EQF4 20-222, change not shown): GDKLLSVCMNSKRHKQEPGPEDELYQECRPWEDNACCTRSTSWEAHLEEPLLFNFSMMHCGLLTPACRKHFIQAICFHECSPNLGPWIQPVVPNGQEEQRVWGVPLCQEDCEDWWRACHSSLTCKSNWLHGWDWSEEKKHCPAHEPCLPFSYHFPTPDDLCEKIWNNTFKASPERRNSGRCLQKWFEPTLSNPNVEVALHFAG
mouse Juno, wild type, AVEXIS prey (from UniProt Q9EQF4) Loop1 (mouse Juno loop 1 replaced with the corresponding human residues), sequence (Q9EQF4 20-222, change not shown): as above
mouse Juno, wild type, AVEXIS prey (from UniProt Q9EQF4) Loop 3 (mouse Juno loop 3 replaced with the corresponding human residues), sequence (Q9EQF4 20-222, change not shown): as above

response [1] [A 485 nm] | response [2] [A 485 nm] | Substance
0.16 | 0.22 | mouse Juno, wild type, AVEXIS prey (from UniProt Q9EQF4) Loop1 (mouse Juno loop 1 replaced with the corresponding human residues)
0.17 | 0.51 | mouse Juno, wild type, AVEXIS prey (from UniProt Q9EQF4) Loop 2 (mouse Juno loop 2 replaced with the corresponding human residues)
0.51 | 0.52 | mouse Juno, wild type, AVEXIS prey (from UniProt Q9EQF4) Loop 3 (mouse Juno loop 3 replaced with the corresponding human residues)

— paper PMC4751342
